According to patent US20160334414A1 (BAXALTA, published 2016):

B1: monoclonal rabbit anti-RAM9 idiotypic antibody 68-1 (antibody, V domains shown)
VH: QEQLKESGGRLVKPGGTLTLTCKASGMDFNNYYYMAWVRQAPGKGLEWIGYISGGGSPYYASWAKGRFTISRTSTTVDLKMTSLTTEDTATYFCGRYTDINNGIDLWGPGTLVTVSS
VL: DIVMTQTPSSVSEPVGGTVTINCQASENIYSNLAWYQQKPGQPPKLLIYLASSLTSGVPSRFKGSGSGTEFTLTISDLECADAAIYYCQNNYGDVRYGRNAFGGGTEVVVKG
notes: Rabbit IgG; also called anti-RAM9-68-1; Clone 68-1
B2: monoclonal rabbit anti-RAM9 idiotypic antibody 54-5 (antibody, V domains shown)
VH: QSLEESGGDLVKPGASLTLTCTASGFSFSSGYDMCWVRQAPGKGLEWIACIYDGDVRTYYASWAKGRFTISRTSSTTMTLQMTGLTAADTATYLCARGASGYLSALYLWGPGTLVTVSS
VL: DVVMTQTPASVSEPVGGTVTIKCQASFTITSNLAWYQQKPGQPPKLLIYGASNLASGVSSRFRGSGFGTEFTLTISDLECADAATYYCQCAAVLSSWTFGGGTEVVVKG
notes: Rabbit IgG; also called anti-RAM9-54-5; Clone 54-5
B3: anti-oxMIF antibody RAM9 (antibody, V domains shown)
VH: EVQLLESGGGLVQPGGSLRLSCAASGFTFSIYSMNWVRQAPGKGLEWVSSIGSSGGTTYYADSVKGRFTISRDNSKNTLYLQMNSLRAEDTAVYYCAGSQWLYGMDVWGQGTTVTVSS
VL: DIQMTQSPSSLSASVGDRVTITCRSSQRIMTYLNWYQQKPGKAPKLLIFVASHSQSGVPSRFRGSGSETDFTLTISGLQPEDSATYYCQQSFWTPLTFGGGTKVEIKR
notes: also called biotinylated RAM9

Key:
[1] = molecular target: T1, oxMIF in human tissue cryosections (human, UniProt P14174 2-115); assay: IHC on pancreas cryosections, 68-1 without the primary antibody RAM9
T1 construct: also called oxidized MIF
Description: (§1) The slides were prepared according to state of the art techniques known to experts, either fresh frozen or OCT embedded, sectioned at 10 μm and stored at <=−80° C. after sectioning. All following steps were done at ambient temperature. The cryo-sections were air dried for 30 min and unspecific binding was blocked with blocking buffer (BB: 20% Normal Goat Serum/2% Bovine Serum Albumin/0.2% Fish Gelatine in TBS) for 15 min. The sections were then incubated without primary antibody or with anti-oxMIF antibody RAM9 in primary antibody dilution buffer (PADB: 2% Bovine Serum Albumin/0.2% Fish Gelatine in TBS) at a concentration of 2 μg/ml for 60 min. After washing in TBS, the specimen was fixed in 4% PBS buffered formaldehyde for 20 min. Excess formaldehyde was removed by washing in TBS for 5-10 min, Endogenous peroxidases were blocked by incubating the tissue sections in 0.3% H₂O₂ in methanol for 20 min. Excess methanol/H₂O₂ was removed by washing in TBS for 5-10 min. Detection of was done by incubating the tissue sections with anti-idiotypic rabbit monoclonal antibodies (68-1) diluted in PADS at 1 μg/ml for 30 min. Excess detection antibody was removed by washing in TBS for 5-10 min. The staining was done using SignalStain® Boost IHC Detection Reagent Rabbit for 30 min. Then the sections were extensively washed again 10 min in TBS. […]

anti-oxMIF antibody RAM9 = molecular target: B3; assay: secondary screening (neutralising) ELISA with finally purified antibody: inhibition of biotinylated RAM9 binding to coated human MIF, % recovery; the number stands in paragraph 159 without a unit, ng/ml is from the axis log c (ng/ml) of the figure
Description: Microplates were coated with human MIF (10 μg/ml PBS, 100 μl/well) and blocked with 250 μl 1.5% fish gelatin in PBS. Washing steps (4×250 μl of PBS per well) were included between the incubations. The samples were serially pre-diluted (in 1% fish gelatin/PBS) to 2× final dilution and mixed with an equivalent volume of biotinylated RAM9 (30 ng/ml) (equivalent to a 1:2 dilution, final concentration of RAM9 is therefore 15 ng/ml). These mixtures were allowed to form complexes for 30 min. […] Biotinylated RAM9 captured on the plate was detected using HRP coupled Streptavidin and TMB as chromogenic substrate. The absorbance of each well was related to the absorbance of the standard curve by linear regression and is expressed in ng/ml. The concentration calculated for biotinylated RAM9 in the sample is related to the calculated concentration of biotinylated RAM9 in the negative control (% recovery=(100%/measured concentration of biotinylated RAM9 in the negative control)×measured concentration of RAM9 in the sample). Half maximal binding inhibition (IC₅₀) by anti-RAM9 antibodies is calculated by blotting log concentration of rabbit anti-RAM9 against % recovery and non-linear 4-parameter curve fit with variable slope FIG. 4a.

[2] = molecular target: T1, oxMIF in human tissue cryosections; assay: IHC on infiltrating ductal carcinoma of the pancreas, RAM9 detected by rabbit anti-RAM9 54-5 or 68-1
Description: as §1

T1 sequence (P14174 2-115 limits assumed): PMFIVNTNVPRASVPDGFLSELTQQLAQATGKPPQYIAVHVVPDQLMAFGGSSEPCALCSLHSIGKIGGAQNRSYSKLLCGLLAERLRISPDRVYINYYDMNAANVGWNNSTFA

| binding result [1] | IC50 (anti-oxMIF antibody RAM9) [µg/mL] | binding result [2] | Binder |
| --- | --- | --- | --- |
| no binding (tested: 1 µg/ml) | 0.0296 |  | B1 |
|  | 0.00596 |  | B2 |
|  |  | binds | B3 |
